Data on four molecules can be found in paper PMC6182141, “Lytic gene expression in the temperate bacteriophage GIL01 is activated by a phage-encoded LexA homologue”.

Numbering of substitutions follows the chain as printed.

Data set [1] addresses T1, gp7 (Bacillus thuringiensis phage GIL01) (UniProt Q7WSG2).
T1 sequence: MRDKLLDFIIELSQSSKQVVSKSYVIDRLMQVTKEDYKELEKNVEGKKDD
Description: EMSA. Conditions: SPR: 25 mM Tris-HCl pH 7.4, 140 mM NaCl, 5 mM EDTA, 2 mM DTT, 0.1 mg/ml BSA, 0.005% P20, 25 C; EMSA and footprinting buffers as in cited work.

Data set [2] concerns the target T2, gp6 (Bacillus thuringiensis phage GIL01, UniProt Q5ILC6).
T2 sequence: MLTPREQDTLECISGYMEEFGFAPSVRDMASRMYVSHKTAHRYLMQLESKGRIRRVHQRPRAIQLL
Description: SPR; SPR: 25 mM Tris-HCl pH 7.4, 140 mM NaCl, 5 mM EDTA, 2 mM DTT, 0.1 mg/ml BSA, 0.005% P20, 25 C; EMSA and footprinting buffers as in cited work. Conditions: protein: recombinant, tags: N-terminal His6 + thrombin site, chain copies: 2, label: 3'-biotin-TEG on S1 capture oligo, 5' overhang 15 nt annealed to immobilized S1 (S39). Background: Surface plasmon resonance follows binding to a sensor surface in real time, without labels.

Another data set concerns the target T3, gp6 K38A (Bacillus thuringiensis phage GIL01, UniProt Q5ILC6 1-66, K38A).
T3 sequence: T2 sequence with K38A
Description: SPR; 2.34-150 nM; SPR: 25 mM Tris-HCl pH 7.4, 140 mM NaCl, 5 mM EDTA, 2 mM DTT, 0.1 mg/ml BSA, 0.005% P20, 25 C; EMSA and footprinting buffers as in cited work. Conditions: protein: recombinant; tags: N-terminal His6 + thrombin site; chain copies: 2; label: 3'-biotin-TEG on S1 capture oligo; 36 bp duplex, 5' overhang 15 nt annealed to immobilized S1 (S39).

Data set [3] deals with T2, gp6. Description: SPR; gp6 2.34-150 nM (Fig. 6D); SPR: 25 mM Tris-HCl pH 7.4, 140 mM NaCl, 5 mM EDTA, 2 mM DTT, 0.1 mg/ml BSA, 0.005% P20, 25 C; EMSA and footprinting buffers as in cited work. Conditions: protein: recombinant; tags: N-terminal His6 + thrombin site; chain copies: 2; label: 3'-biotin-TEG on S1 capture oligo; 36 bp duplex, 5' overhang 15 nt annealed to immobilized S1 (S39).

For the molecule “TGTTGAACAAGGAATAGTAGAAAAGGACTAGCAAAGTTGCTAGTCTTTTTTATTTGTCCAAAATGACACACGTGTGACGTTATGCGGAACACTCGTTCGTATTATAGTATACATATAGCGAACAAACATTCGATAAGGAGTGTGACAAAGTGGATGCTTTAACGGAACTAATCATAGCTAACAATAAAGTGGAAATGCTT (double strand) [P3 fragment with dinBox2 and dinBox3 (EMSA7/EMSA10)]”, in data set [1], the binding result was “no binding”.

B1: B23_Lwt (-35, dinBox2, dinBox3) (dsDNA)
DNA 1: GTTACTACTCGAGCGATTTGTCCAAAATGACACACGTGTGACGTTATGCGGAACACTCGTTCGTATTATAGTATACATATAGCGAACAAACATTCGATAAGGAG
DNA 2: CTCCTTATCGAATGTTTGTTCGCTATATGTATACTATAATACGAACGAGTGTTCCGCATAACGTCACACGTGTGTCATTTTGGACAAAT
Turning to B1, in the data set with gp6 [2] (89 bp duplex), the binding result is “binds”.

B2: B23_Swt (gp6 site) (dsDNA)
DNA 1: GTTACTACTCGAGCGATTTGTCCAAAATGACACACGTGTGACGTTATGCGG
DNA 2: CCGCATAACGTCACACGTGTGTCATTTTGGACAAAT
For the molecule B2, the binding result in the data set with gp6 K38A is given as “no binding”; with gp6 [3], “binds”.

B3: B23_Smns (triple mutant gp6 site) (dsDNA)
DNA 1: B2 DNA 1 with G29T, A32C, G38A
DNA 2: B2 DNA 2 with C14T, T20G, C23A
Regarding B3, in the data set with gp6 [2] (36 bp duplex), the binding result is “no binding”.
